Here are results for 1 molecule from patent publication US20220273751A1, “GPCR HETEROMER INHIBITORS AND USES THEREOF” (GPCR THERAPEUTICS, INC., priority 2019, published 2022).

The target of this assay is T1, CXCR4-VC (CXCR4 fused with C-terminal fragment of Venus) (human).
T1 chain: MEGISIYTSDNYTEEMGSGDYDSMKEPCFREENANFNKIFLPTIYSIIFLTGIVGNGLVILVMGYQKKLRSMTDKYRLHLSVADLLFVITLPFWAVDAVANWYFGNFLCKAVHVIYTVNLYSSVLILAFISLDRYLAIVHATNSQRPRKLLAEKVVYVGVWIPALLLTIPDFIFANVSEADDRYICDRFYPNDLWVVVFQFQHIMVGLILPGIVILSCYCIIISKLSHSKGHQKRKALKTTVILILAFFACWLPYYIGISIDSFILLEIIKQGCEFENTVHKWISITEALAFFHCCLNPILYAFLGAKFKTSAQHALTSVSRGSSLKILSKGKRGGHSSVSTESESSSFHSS
In words: BiFC, U-2 OS cells co-transduced with adenoviruses (30 MOI each). Conditions: remark: other sources report otherwise; scale: BiFC score =.

B1: CXCR4-VN (CXCR4 fused with N-terminal fragment of yellow fluorescent protein Venus), P61072 1-352 (receptor, not shown: small tags and cut ends)
chain: T1 chain
modifications: here or on the partner: Venus N-terminal fragment (VN) fused to the receptor. Its letters are not given, so it is left out.; Venus C-terminal fragment (VC) fused to the receptor. Its letters are not given, so it is left out.
With B1, the BiFC score is 9.9.
